# According to IntAct's records for PubMed 18488041:
# B1: Proto-oncogene vav (Mus musculus), P27870 (parent)
# chain: MELWRQCTHWLIQCRVLPPSHRVTWEGAQVCELAQALRDGVLLCQLLNNLLPQAINLREVNLRPQMSQFLCLKNIRTFLSTCCEKFGLKRSELFEAFDLFDVQDFGKVIYTLSALSWTPIAQNKGIMPFPTEDSALNDEDIYSGLSDQIDDTAEEDEDLYDCVENEEAEGDEIYEDLMRLESVPTPPKMTEYDKRCCCLREIQQTEEKYTDTLGSIQQHFMKPLQRFLKPQDMETIFVNIEELFSVHTHFLKELKDALAGPGATTLYQVFIKYKERFLVYGRYCSQVESASKHLDQVATAREDVQMKLEECSQRANNGRFTLRDLLMVPMQRVLKYHLLLQELVKHTQDATEKENLRLALDAMRDLAQCVNEVKRDNETLRQITNFQLSIENLDQSLANYGRPKIDGELKITSVERRSKTDRYAFLLDKALLICKRRGDSYDLKASVNLHSFQVRDDSSGERDNKKWSHMFLLIEDQGAQGYELFFKTRELKKKWMEQFEMAISNIYPENATANGHDFQMFSFEETTSCKACQMLLRGTFYQGYRCYRCRAPAHKECLGRVPPCGRHGQDFAGTMKKDKLHRRAQDKKRNELGLPKMEVFQEYYGIPPPPGAFGPFLRLNPGDIVELTKAEAEHNWWEGRNTATNEVGWFPCNRVHPYVHGPPQDLSVHLWYAGPMERAGAEGILTNRSDGTYLVRQRVKDTAEFAISIKYNVEVKHIKIMTSEGLYRITEKKAFRGLLELVEFYQQNSLKDCFKSLDTTLQFPYKEPERRAISKPPAGSTKYFGTAKARYDFCARDRSELSLKEGDIIKILNKKGQQGWWRGEIYGRIGWFPSNYVEEDYSEYC
# Variants of: B1
# Settings: with RAC1, P63000-1
row,Variant,effect of a mutation on the interaction
1,K208A,increasing interaction
2,Y174F,increasing interaction
